Laboratory results as given in patent US20250002588A1 (DIAGONAL THERAPEUTICS, published 2025).
Where two headings read alike, the source gives them in different places.

T1: human BMPRII protein (Sino Biological, #10551-H08H) (human, UniProt Q13873 27-150)
T1 sequence (looked up): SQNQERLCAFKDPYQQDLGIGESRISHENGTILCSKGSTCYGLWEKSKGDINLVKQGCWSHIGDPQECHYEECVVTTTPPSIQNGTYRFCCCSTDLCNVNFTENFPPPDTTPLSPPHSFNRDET


Columns and labels:
[1] = target: T2, ALK-1/BMPR-2 receptor pair of the PathHunter U2Os dimerization cells (DiscoverX 93-0962C3) (UniProt P37023 22-503; Q13873 27-1038); assay: cell-based or functional assay
[2] = target: T1, human BMPRII protein (Sino Biological, …); assay: ELISA, coated human BMPRII
Protocol: (§1) These binders were then tested using an ELISA assay. High binding plates (Corning, 9018) were coated with either 2 μg/ml of human BMPRII protein (Sino Biological, #10551-H08H) or 2 μg/ml of human ALK1 protein (Sino Biological, #10066-H08H) overnight at 4C. The plates were then washed three times with wash buffer (R&D Systems, WA126). […] The plates were then washed three times with wash buffer and DGL antibodies or controls, which were diluted with PBS and 0.1% BSA. The antibodies were incubated for one hour at room temperature and then the plates were washed three times with wash buffer. The plates were then incubated with mouse anti-human IgG Fc secondary—HRP (diluted with PBS/0.1% BSA); 100 ul per well at 2 μg/ml and incubated at room temperature for one hour. The plate was washed three times in wash buffer and then 100 ul TMB (R&D Systems, DY9998B, substrate reagent pack). After the wells turn blue, 50 ul of stop solution (R&D Systems, DY994) was added to each well and the absorbance of the plate was read at 450 nm. results can be found in Table 8.

[3] = target: human ALK1 protein (Sino Biological, #10066-H08H) (human, UniProt P37023 22-118); assay: ELISA, coated human ALK1
Protocol: as §1

[4] = target: T2, ALK-1/BMPR-2 receptor pair of the …; assay: cell-based or functional assay; remark: listed apart in the source

human ALK1 protein (Sino Biological, #10066-H08H), sequence (P37023 22-118 limits assumed): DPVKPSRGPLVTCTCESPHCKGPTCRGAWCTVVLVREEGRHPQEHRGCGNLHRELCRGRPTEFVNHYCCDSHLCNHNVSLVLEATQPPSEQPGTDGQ
T2 sequence (P37023 22-503, one chain of several): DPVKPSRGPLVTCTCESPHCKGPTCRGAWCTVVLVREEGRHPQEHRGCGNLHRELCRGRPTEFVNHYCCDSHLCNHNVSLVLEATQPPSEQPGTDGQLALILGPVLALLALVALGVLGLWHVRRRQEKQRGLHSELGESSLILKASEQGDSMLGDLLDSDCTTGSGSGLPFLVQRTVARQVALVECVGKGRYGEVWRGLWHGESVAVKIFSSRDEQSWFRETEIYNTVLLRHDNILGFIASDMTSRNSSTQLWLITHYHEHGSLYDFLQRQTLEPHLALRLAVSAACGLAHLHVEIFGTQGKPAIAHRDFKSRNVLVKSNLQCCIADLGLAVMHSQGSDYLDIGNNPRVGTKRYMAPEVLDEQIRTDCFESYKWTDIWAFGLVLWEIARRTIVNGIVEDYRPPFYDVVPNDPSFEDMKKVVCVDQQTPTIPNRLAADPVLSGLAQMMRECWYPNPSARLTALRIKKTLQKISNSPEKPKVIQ

Row | Binder | % Emax BMP9 [1] [%] | Emax (RLU) [1] [RLU] | Abs450 1 nM [2] | Abs450 10 nM [2] | Abs450 100 nM [2] | Abs450 1 nM [3] | Abs450 10 nM [3] | Abs450 100 nM [3] | % Emax BMP9 [4] [%] | Emax (RLU) [4] [RLU]
1 | DGL634 (bispecific antibody) chain 1: not shown chain 2: EVQLLESGGGLVQPGGSLRLSCAASGFTFSNAWMNWVRQAPGKGLEWVSSISSSSSYIYYADSVKGRFTISRDNSKNTLYLQMNSLRAEDTAVYYCARAVAAGGMFWGLDQWGQGTLVTVTSSGGGGSGGGGSGGGGSQSVLTQPPSASGTPGQRVTISCSGSRSNIGSNSVHWYQQLPGTAPKLLIYGNSNRPSGVPDRFSGSKSGTSASLAISGLRSEDEADYYCQSYDSSLNDHVVFGGGTKLTVLDKTHTCPPCPAPEAAGAPSVFLFPPKPKDTLMISRTPEVTCVVVDVSHEDPEVKFNWYVDGVEVHNAKTKPREEQYNSTYRVVSVLTVLHQDWLNGKEYKCKVSNKALPAPIEKTISKAKGQPREPQVCTLPPSRDELTKNQVSLSCAVKGFYPSDIAVEWESNGQPENNYKTTPPVLDSDGSFFLVSKLTVDKSRWQQGNVFSCSVMHEALHNHYTQKSLSLSPGWSHPQFEK | 16 | 288000 | 0.12 | 0.19 | 0.4 | – | – | – | – | –
2 | DGL627 (bispecific antibody) chain 1: not shown chain 2: EVQLLESGGGLVQPGGSLRLSCAASGFTFSDYYMTWIRQAPGKGLEWVSSISGGSTYYADSRKGRFTISRDNSENTLYLQMNSLRAEDTAVYYCARDFGVAGWFGQYGMDVWGQGTLVTVSSGGGGSGGGGSGGGGSQSVLTQPPSASGTPGQRVTISCTGSSSNIGAGYDVHWYQQLPGTAPKLLIYRSNQRPSGVPDRFSGSKSGTSASLAISGLRSEDEADYYCSSYAGNYNLVFGGGTKLTVLDKTHTCPPCPAPEAAGAPSVFLFPPKPKDTLMISRTPEVTCVVVDVSHEDPEVKFNWYVDGVEVHNAKTKPREEQYNSTYRVVSVLTVLHQDWLNGKEYKCKVSNKALPAPIEKTISKAKGQPREPQVCTLPPSRDELTKNQVSLSCAVKGFYPSDIAVEWESNGQPENNYKTTPPVLDSDGSFFLVSKLTVDKSRWQQGNVFSCSVMHEALHNHYTQKSLSLSPGWSHPQFEK | 14 | 502000 | 0.15 | 0.22 | 0.66 | 0.05 | 0.07 | 0.07 | – | –
3 | DGL918 (bispecific antibody) chain 1: not shown chain 2: EVQLLESGGGLVQPGGSLRLSCAASGFTFSDYWMTWIRQAPGKGLEWVSSISGGTTYYADSRKGRFTISRDNSENTLYLQMNSLRAEDTAVYYCARDFGVSGWFGQYGMDVWGQGTLVTVSSGGGGSGGGGSGGGGSQSVLTQPPSASGTPGQRVTISCTGSSSNIGAGYDVHWYQQLPGTAPKLLIYRSNQRPSGVPDRFSGSKSGTSASLAISGLRSEDEADYYCSSYAGNYNLVFGGGTKLTVLDKTHTCPPCPAPEAAGAPSVFLFPPKPKDTLMISRTPEVTCVVVDVSHEDPEVKFNWYVDGVEVHNAKTKPREEQYNSTYRVVSVLTVLHQDWLNGKEYKCKVSNKALPAPIEKTISKAKGQPREPQVCTLPPSRDELTKNQVSLSCAVKGFYPSDIAVEWESNGQPENNYKTTPPVLDSDGSFFLVSKLTVDKSRWQQGNVFSCSVMHEALHNHYTQKSLSLSPGWSHPQFEK | – | – | – | – | – | – | – | – | 46 | 1.24e+06
4 | DGL916 (bispecific antibody) chain 1: not shown chain 2: EVQLLESGGGLVQPGGSLRLSCAASGFTFSDYWMTWIRQAPGKGLEWVSSISGGSTYYADSRKGRFTISRDNSENTLYLQMNSLRAEDTAVYYCARDFGVAGWFGQYGMDVWGQGTLVTVSSGGGGSGGGGSGGGGSQSVLTQPPSASGTPGQRVTISCTGSSSNIGAGYDVHWYQQLPGTAPKLLIYRSNQRPSGVPDRFSGSKSGTSASLAISGLRSEDEADYYCSSYAGNYNLVFGGGTKLTVLDKTHTCPPCPAPEAAGAPSVFLFPPKPKDTLMISRTPEVTCVVVDVSHEDPEVKFNWYVDGVEVHNAKTKPREEQYNSTYRVVSVLTVLHQDWLNGKEYKCKVSNKALPAPIEKTISKAKGQPREPQVCTLPPSRDELTKNQVSLSCAVKGFYPSDIAVEWESNGQPENNYKTTPPVLDSDGSFFLVSKLTVDKSRWQQGNVFSCSVMHEALHNHYTQKSLSLSPGWSHPQFEK | – | – | – | – | – | – | – | – | 41 | 1.11e+06
5 | DGL917 (bispecific antibody) chain 1: not shown chain 2: EVQLLESGGGLVQPGGSLRLSCAASGFTFSDYYMTWIRQAPGKGLEWVSSISGGTTYYADSRKGRFTISRDNSENTLYLQMNSLRAEDTAVYYCARDFGVAGWFGQYGMDVWGQGTLVTVSSGGGGSGGGGSGGGGSQSVLTQPPSASGTPGQRVTISCTGSSSNIGAGYDVHWYQQLPGTAPKLLIYRSNQRPSGVPDRFSGSKSGTSASLAISGLRSEDEADYYCSSYAGNYNLVFGGGTKLTVLDKTHTCPPCPAPEAAGAPSVFLFPPKPKDTLMISRTPEVTCVVVDVSHEDPEVKFNWYVDGVEVHNAKTKPREEQYNSTYRVVSVLTVLHQDWLNGKEYKCKVSNKALPAPIEKTISKAKGQPREPQVCTLPPSRDELTKNQVSLSCAVKGFYPSDIAVEWESNGQPENNYKTTPPVLDSDGSFFLVSKLTVDKSRWQQGNVFSCSVMHEALHNHYTQKSLSLSPGWSHPQFEK | – | – | – | – | – | – | – | – | 17 | 469000
6 | DGL625 (bispecific antibody) chain 1: not shown chain 2: EVQLLESGGGLVQPGGSLRLSCAASGFTFSDYYMTWIRQAPGKGLEWVSSISGGSTYYADSRKGRFTISRDNSENTLYLQMNSLRAEDTAVYYCARDFGVAGWFGQYGMDVWGQGTLVTVSSGGGGSGGGGSGGGGSQSVLTQPPSASGTPGQRVTISCTGSSSNIGAGYDVHWYQQLPGTAPKLLIYRSNQRPSGVPDRFSGSKSGTSASLAISGLRSEDEADYYCSSYAGNYNLVFGGGTKLTVLDKTHTCPPCPAPEAAGAPSVFLFPPKPKDTLMISRTPEVTCVVVDVSHEDPEVKFNWYVDGVEVHNAKTKPREEQYNSTYRVVSVLTVLHQDWLNGKEYKCKVSNKALPAPIEKTISKAKGQPREPQVCTLPPSRDELTKNQVSLSCAVKGFYPSDIAVEWESNGQPENNYKTTPPVLDSDGSFFLVSKLTVDKSRWQQGNVFSCSVMHEALHNHYTQKSLSLSPGWSHPQFEK | 17 | 615000 | 0.17 | 0.35 | 1.21 | 0.07 | 0.07 | 0.11 | – | –
7 | DGL629 (bispecific antibody) chain 1: not shown chain 2: EVQLLESGGGLVQPGGSLRLSCAASGFTFSDYYMTWIRQAPGKGLEWVSSISGGSTYYADSRKGRFTISRDNSENTLYLQMNSLRAEDTAVYYCARDFGVAGWFGQYGMDVWGQGTLVTVSSGGGGSGGGGSGGGGSQSVLTQPPSASGTPGQRVTISCTGSSSNIGAGYDVHWYQQLPGTAPKLLIYRSNQRPSGVPDRFSGSKSGTSASLAISGLRSEDEADYYCSSYAGNYNLVFGGGTKLTVLDKTHTCPPCPAPEAAGAPSVFLFPPKPKDTLMISRTPEVTCVVVDVSHEDPEVKFNWYVDGVEVHNAKTKPREEQYNSTYRVVSVLTVLHQDWLNGKEYKCKVSNKALPAPIEKTISKAKGQPREPQVCTLPPSRDELTKNQVSLSCAVKGFYPSDIAVEWESNGQPENNYKTTPPVLDSDGSFFLVSKLTVDKSRWQQGNVFSCSVMHEALHNHYTQKSLSLSPGWSHPQFEK | 12 | 424000 | 0.18 | 0.29 | 0.9 | 0.08 | 0.08 | 0.08 | – | –
8 | DGL628 (bispecific antibody) chain 1: not shown chain 2: EVQLLESGGGLVQPGGSLRLSCAASGFTFSDYYMTWIRQAPGKGLEWVSSISGGSTYYADSRKGRFTISRDNSENTLYLQMNSLRAEDTAVYYCARDFGVAGWFGQYGMDVWGQGTLVTVSSGGGGSGGGGSGGGGSQSVLTQPPSASGTPGQRVTISCTGSSSNIGAGYDVHWYQQLPGTAPKLLIYRSNQRPSGVPDRFSGSKSGTSASLAISGLRSEDEADYYCSSYAGNYNLVFGGGTKLTVLDKTHTCPPCPAPEAAGAPSVFLFPPKPKDTLMISRTPEVTCVVVDVSHEDPEVKFNWYVDGVEVHNAKTKPREEQYNSTYRVVSVLTVLHQDWLNGKEYKCKVSNKALPAPIEKTISKAKGQPREPQVCTLPPSRDELTKNQVSLSCAVKGFYPSDIAVEWESNGQPENNYKTTPPVLDSDGSFFLVSKLTVDKSRWQQGNVFSCSVMHEALHNHYTQKSLSLSPGWSHPQFEK | 24 | 884000 | 0.17 | 0.27 | 0.8 | 0.05 | 0.12 | 0.52 | – | –
9 | DGL626 (bispecific antibody) chain 1: not shown chain 2: EVQLLESGGGLVQPGGSLRLSCAASGFTFSDYYMTWIRQAPGKGLEWVSSISGGSTYYADSRKGRFTISRDNSENTLYLQMNSLRAEDTAVYYCARDFGVAGWFGQYGMDVWGQGTLVTVSSGGGGSGGGGSGGGGSQSVLTQPPSASGTPGQRVTISCTGSSSNIGAGYDVHWYQQLPGTAPKLLIYRSNQRPSGVPDRFSGSKSGTSASLAISGLRSEDEADYYCSSYAGNYNLVFGGGTKLTVLDKTHTCPPCPAPEAAGAPSVFLFPPKPKDTLMISRTPEVTCVVVDVSHEDPEVKFNWYVDGVEVHNAKTKPREEQYNSTYRVVSVLTVLHQDWLNGKEYKCKVSNKALPAPIEKTISKAKGQPREPQVCTLPPSRDELTKNQVSLSCAVKGFYPSDIAVEWESNGQPENNYKTTPPVLDSDGSFFLVSKLTVDKSRWQQGNVFSCSVMHEALHNHYTQKSLSLSPGWSHPQFEK | 7 | 258000 | 0.17 | 0.25 | 0.71 | 0.06 | 0.07 | 0.06 | – | –
